These results are taken from US12679878B2, “CRF2 receptor agonists and their use in therapy” (SANOFI, priority 2020, dated 2026).

Starred links: 1 amine or outer side, 2 acyl side, 3 side chain; linkers in the order of their positions; H or OH if unused. Non-standard residues stand in square brackets, D forms with d. Groups on a side chain read outwards from the residue. No end group written: not given here. *: point of attachment. γGlu = O=C(O)[C@H](CCC(=O)[*:2])N[*:1]; Palmitoyl = CCCCCCCCCCCCCCCC(=O)*

The target in the assay is T1, anti-target CRF1R receptor (UniProt P34998 24-415, limits assumed).
T1 sequence (looked up): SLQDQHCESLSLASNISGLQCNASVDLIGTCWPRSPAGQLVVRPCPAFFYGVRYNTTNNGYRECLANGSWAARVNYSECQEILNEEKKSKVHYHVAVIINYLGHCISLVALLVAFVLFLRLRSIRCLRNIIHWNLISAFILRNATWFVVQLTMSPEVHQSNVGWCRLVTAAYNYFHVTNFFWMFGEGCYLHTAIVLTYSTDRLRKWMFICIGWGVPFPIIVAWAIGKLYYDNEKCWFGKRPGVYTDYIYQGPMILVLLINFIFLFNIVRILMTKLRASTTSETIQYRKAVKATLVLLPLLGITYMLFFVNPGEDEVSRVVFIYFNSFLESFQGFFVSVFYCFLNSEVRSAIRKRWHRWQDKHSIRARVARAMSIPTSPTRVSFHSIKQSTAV
Nature of the assay: cell-based or functional assay.

B1: peptide of SEQ ID NO: 7 (peptide)
peptide: IVLSLD[dV]PTKLK([γGlu-Palmitoyl])QKLLKQERQRKEREQAEKNARILARV-NH2
modifications: not fully specified; printed as IVLSLDvPTKLK*QKLLKQERQRKEREQAEKNARILARV-NH2
As to B1, the “EC50[nM] 0% HSA (cAMP, CRF1R-overexpression CHO cells)” value (shortened to “EC50[nM] 0% HSA”) was 588 nM and the “Emax (%) (cAMP, CRF1R-overexpression CHO cells)” value (shortened to “Emax (%)”) was determined as 58.6%.

B2: peptide of SEQ ID NO: 9 (peptide)
peptide: FTLSLDVPTKIK([γGlu-Palmitoyl])QKLLKQEKQKKQRQKAKTAKQILEQV-NH2
modifications: N-terminus assumed
SMILES: CCCCCCCCCCCCCCCC(=O)N[C@@H](CCC(=O)NCCCC[C@H](NC(=O)[C@@H](NC(=O)[C@H](CCCCN)NC(=O)[C@@H](NC(=O)[C@@H]1CCCN1C(=O)[C@@H](NC(=O)[C@H](CC(=O)O)NC(=O)[C@H](CC(C)C)NC(=O)[C@H](CO)NC(=O)[C@H](CC(C)C)NC(=O)[C@@H](NC(=O)[C@@H](N)Cc1ccccc1)[C@@H](C)O)C(C)C)[C@@H](C)O)[C@@H](C)CC)C(=O)N[C@@H](CCC(N)=O)C(=O)N[C@@H](CCCCN)C(=O)N[C@@H](CC(C)C)C(=O)N[C@@H](CC(C)C)C(=O)N[C@@H](CCCCN)C(=O)N[C@@H](CCC(N)=O)C(=O)N[C@@H](CCC(=O)O)C(=O)N[C@@H](CCCCN)C(=O)N[C@@H](CCC(N)=O)C(=O)N[C@@H](CCCCN)C(=O)N[C@@H](CCCCN)C(=O)N[C@@H](CCC(N)=O)C(=O)N[C@@H](CCCNC(=N)N)C(=O)N[C@@H](CCC(N)=O)C(=O)N[C@@H](CCCCN)C(=O)N[C@@H](C)C(=O)N[C@@H](CCCCN)C(=O)N[C@H](C(=O)N[C@@H](C)C(=O)N[C@@H](CCCCN)C(=O)N[C@@H](CCC(N)=O)C(=O)N[C@H](C(=O)N[C@@H](CC(C)C)C(=O)N[C@@H](CCC(=O)O)C(=O)N[C@@H](CCC(N)=O)C(=O)N[C@H](C(N)=O)C(C)C)[C@@H](C)CC)[C@@H](C)O)C(=O)O
Take B2: the “EC50[nM] 0% HSA” value was above 1000 nM and the “Emax (%)” value was 14.9%.

B3: peptide of SEQ ID NO: 5 (peptide)
peptide: IVLSLDVPIGLK([γGlu-Palmitoyl])QKLLKQQRQRKERQQAETNARILARV-NH2
modifications: N-terminus assumed
SMILES: CCCCCCCCCCCCCCCC(=O)N[C@@H](CCC(=O)NCCCC[C@H](NC(=O)[C@H](CC(C)C)NC(=O)CNC(=O)[C@@H](NC(=O)[C@@H]1CCCN1C(=O)[C@@H](NC(=O)[C@H](CC(=O)O)NC(=O)[C@H](CC(C)C)NC(=O)[C@H](CO)NC(=O)[C@H](CC(C)C)NC(=O)[C@@H](NC(=O)[C@@H](N)[C@@H](C)CC)C(C)C)C(C)C)[C@@H](C)CC)C(=O)N[C@@H](CCC(N)=O)C(=O)N[C@@H](CCCCN)C(=O)N[C@@H](CC(C)C)C(=O)N[C@@H](CC(C)C)C(=O)N[C@@H](CCCCN)C(=O)N[C@@H](CCC(N)=O)C(=O)N[C@@H](CCC(N)=O)C(=O)N[C@@H](CCCNC(=N)N)C(=O)N[C@@H](CCC(N)=O)C(=O)N[C@@H](CCCNC(=N)N)C(=O)N[C@@H](CCCCN)C(=O)N[C@@H](CCC(=O)O)C(=O)N[C@@H](CCCNC(=N)N)C(=O)N[C@@H](CCC(N)=O)C(=O)N[C@@H](CCC(N)=O)C(=O)N[C@@H](C)C(=O)N[C@@H](CCC(=O)O)C(=O)N[C@H](C(=O)N[C@@H](CC(N)=O)C(=O)N[C@@H](C)C(=O)N[C@@H](CCCNC(=N)N)C(=O)N[C@H](C(=O)N[C@@H](CC(C)C)C(=O)N[C@@H](C)C(=O)N[C@@H](CCCNC(=N)N)C(=O)N[C@H](C(N)=O)C(C)C)[C@@H](C)CC)[C@@H](C)O)C(=O)O
For the molecule B3, the “EC50[nM] 0% HSA” value is above 1000 nM and the “Emax (%)” value is 37.4%.

B4: peptide of SEQ ID NO: 10 (peptide)
peptide: FTLSLDVPTKIK([γGlu-Palmitoyl])QKLLKQEKQKKQRQKAKTNKQILEQV-NH2
modifications: N-terminus assumed
SMILES: CCCCCCCCCCCCCCCC(=O)N[C@@H](CCC(=O)NCCCC[C@H](NC(=O)[C@@H](NC(=O)[C@H](CCCCN)NC(=O)[C@@H](NC(=O)[C@@H]1CCCN1C(=O)[C@@H](NC(=O)[C@H](CC(=O)O)NC(=O)[C@H](CC(C)C)NC(=O)[C@H](CO)NC(=O)[C@H](CC(C)C)NC(=O)[C@@H](NC(=O)[C@@H](N)Cc1ccccc1)[C@@H](C)O)C(C)C)[C@@H](C)O)[C@@H](C)CC)C(=O)N[C@@H](CCC(N)=O)C(=O)N[C@@H](CCCCN)C(=O)N[C@@H](CC(C)C)C(=O)N[C@@H](CC(C)C)C(=O)N[C@@H](CCCCN)C(=O)N[C@@H](CCC(N)=O)C(=O)N[C@@H](CCC(=O)O)C(=O)N[C@@H](CCCCN)C(=O)N[C@@H](CCC(N)=O)C(=O)N[C@@H](CCCCN)C(=O)N[C@@H](CCCCN)C(=O)N[C@@H](CCC(N)=O)C(=O)N[C@@H](CCCNC(=N)N)C(=O)N[C@@H](CCC(N)=O)C(=O)N[C@@H](CCCCN)C(=O)N[C@@H](C)C(=O)N[C@@H](CCCCN)C(=O)N[C@H](C(=O)N[C@@H](CC(N)=O)C(=O)N[C@@H](CCCCN)C(=O)N[C@@H](CCC(N)=O)C(=O)N[C@H](C(=O)N[C@@H](CC(C)C)C(=O)N[C@@H](CCC(=O)O)C(=O)N[C@@H](CCC(N)=O)C(=O)N[C@H](C(N)=O)C(C)C)[C@@H](C)CC)[C@@H](C)O)C(=O)O
For the molecule B4, the “EC50[nM] 0% HSA” value was above 1000 nM and the “Emax (%)” value came out at 10.2%.

B5: peptide of SEQ ID NO: 12 (peptide)
peptide: FTLSLDVPTKIK([γGlu-Palmitoyl])QKLLKQEKQRKQKQQAKTNAKILARV-NH2
modifications: N-terminus assumed
SMILES: CCCCCCCCCCCCCCCC(=O)N[C@@H](CCC(=O)NCCCC[C@H](NC(=O)[C@@H](NC(=O)[C@H](CCCCN)NC(=O)[C@@H](NC(=O)[C@@H]1CCCN1C(=O)[C@@H](NC(=O)[C@H](CC(=O)O)NC(=O)[C@H](CC(C)C)NC(=O)[C@H](CO)NC(=O)[C@H](CC(C)C)NC(=O)[C@@H](NC(=O)[C@@H](N)Cc1ccccc1)[C@@H](C)O)C(C)C)[C@@H](C)O)[C@@H](C)CC)C(=O)N[C@@H](CCC(N)=O)C(=O)N[C@@H](CCCCN)C(=O)N[C@@H](CC(C)C)C(=O)N[C@@H](CC(C)C)C(=O)N[C@@H](CCCCN)C(=O)N[C@@H](CCC(N)=O)C(=O)N[C@@H](CCC(=O)O)C(=O)N[C@@H](CCCCN)C(=O)N[C@@H](CCC(N)=O)C(=O)N[C@@H](CCCNC(=N)N)C(=O)N[C@@H](CCCCN)C(=O)N[C@@H](CCC(N)=O)C(=O)N[C@@H](CCCCN)C(=O)N[C@@H](CCC(N)=O)C(=O)N[C@@H](CCC(N)=O)C(=O)N[C@@H](C)C(=O)N[C@@H](CCCCN)C(=O)N[C@H](C(=O)N[C@@H](CC(N)=O)C(=O)N[C@@H](C)C(=O)N[C@@H](CCCCN)C(=O)N[C@H](C(=O)N[C@@H](CC(C)C)C(=O)N[C@@H](C)C(=O)N[C@@H](CCCNC(=N)N)C(=O)N[C@H](C(N)=O)C(C)C)[C@@H](C)CC)[C@@H](C)O)C(=O)O
Turning to B5, the “EC50[nM] 0% HSA” value is above 1000 nM and the “Emax (%)” value came to 41.8%.

B6: peptide of SEQ ID NO: 6 (peptide)
peptide: IVLSLDVPIGLK([γGlu-Palmitoyl])QKLLKQQRQRKERQQAEKNARILARV-NH2
modifications: N-terminus assumed
SMILES: CCCCCCCCCCCCCCCC(=O)N[C@@H](CCC(=O)NCCCC[C@H](NC(=O)[C@H](CC(C)C)NC(=O)CNC(=O)[C@@H](NC(=O)[C@@H]1CCCN1C(=O)[C@@H](NC(=O)[C@H](CC(=O)O)NC(=O)[C@H](CC(C)C)NC(=O)[C@H](CO)NC(=O)[C@H](CC(C)C)NC(=O)[C@@H](NC(=O)[C@@H](N)[C@@H](C)CC)C(C)C)C(C)C)[C@@H](C)CC)C(=O)N[C@@H](CCC(N)=O)C(=O)N[C@@H](CCCCN)C(=O)N[C@@H](CC(C)C)C(=O)N[C@@H](CC(C)C)C(=O)N[C@@H](CCCCN)C(=O)N[C@@H](CCC(N)=O)C(=O)N[C@@H](CCC(N)=O)C(=O)N[C@@H](CCCNC(=N)N)C(=O)N[C@@H](CCC(N)=O)C(=O)N[C@@H](CCCNC(=N)N)C(=O)N[C@@H](CCCCN)C(=O)N[C@@H](CCC(=O)O)C(=O)N[C@@H](CCCNC(=N)N)C(=O)N[C@@H](CCC(N)=O)C(=O)N[C@@H](CCC(N)=O)C(=O)N[C@@H](C)C(=O)N[C@@H](CCC(=O)O)C(=O)N[C@@H](CCCCN)C(=O)N[C@@H](CC(N)=O)C(=O)N[C@@H](C)C(=O)N[C@@H](CCCNC(=N)N)C(=O)N[C@H](C(=O)N[C@@H](CC(C)C)C(=O)N[C@@H](C)C(=O)N[C@@H](CCCNC(=N)N)C(=O)N[C@H](C(N)=O)C(C)C)[C@@H](C)CC)C(=O)O
For the molecule B6, the “EC50[nM] 0% HSA” value came out at 830 nM and the “Emax (%)” value came to 47.2%.
